Patent US20240376200A1 (Seagen, published 2024)

T1: Coil 148 heavy chain peptide for CD studies (VelB L24I/V28L)
T1 construct: also called Coil 148 (L24I/V28L)
T1 peptide: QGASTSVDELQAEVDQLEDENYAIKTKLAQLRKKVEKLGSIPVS

T2: Vel heavy chain peptide for CD studies (VelB)
T2 construct: also called VelB (heavy chain) peptide; VelB1
T2 peptide: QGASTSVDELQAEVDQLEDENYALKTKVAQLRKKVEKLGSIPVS


Key:
[1] = molecular target: T1, Coil 148 heavy chain peptide for CD …; test: circular dichroism thermal denaturation at 222 nm, 150 µM total peptide
[2] = circular dichroism thermal denaturation at 222 nm
[3] = molecular target: T2, Vel heavy chain peptide for CD studies …; test: circular dichroism thermal denaturation at 222 nm, 150 µM total peptide

Protein	Tm (melting temperature of the heterodimer) [1]	Tm (melting temperature of the light chain homodimer) [2]	Tm (melting temperature of the heterodimer) [3]
QGASTTVAQLEEKVKTLRAENYEAKSELQRLEEQVAQLGSIPVS (also called Coil 148 (L24A/V28L)) [Coil 148 light chain peptide for CD studies (VelA L24A/V28L)]	39.7 ° C.	Tm=<20 °C	
QGASTTVAQLEEKVKTLRAENYELKSEVQRLEEQVAQLGSIPVS (also called VelA (light chain) peptide; VelA1) [Vel light chain peptide for CD studies (VelA)]		Tm=35.7 °C	57.6 ° C.
